Target: T1, full-length human ROBO4 (pCI-hROBO4-transfected HEK293/HEK293T cells) (human, UniProt Q8WZ75 28-1007)
T1 sequence: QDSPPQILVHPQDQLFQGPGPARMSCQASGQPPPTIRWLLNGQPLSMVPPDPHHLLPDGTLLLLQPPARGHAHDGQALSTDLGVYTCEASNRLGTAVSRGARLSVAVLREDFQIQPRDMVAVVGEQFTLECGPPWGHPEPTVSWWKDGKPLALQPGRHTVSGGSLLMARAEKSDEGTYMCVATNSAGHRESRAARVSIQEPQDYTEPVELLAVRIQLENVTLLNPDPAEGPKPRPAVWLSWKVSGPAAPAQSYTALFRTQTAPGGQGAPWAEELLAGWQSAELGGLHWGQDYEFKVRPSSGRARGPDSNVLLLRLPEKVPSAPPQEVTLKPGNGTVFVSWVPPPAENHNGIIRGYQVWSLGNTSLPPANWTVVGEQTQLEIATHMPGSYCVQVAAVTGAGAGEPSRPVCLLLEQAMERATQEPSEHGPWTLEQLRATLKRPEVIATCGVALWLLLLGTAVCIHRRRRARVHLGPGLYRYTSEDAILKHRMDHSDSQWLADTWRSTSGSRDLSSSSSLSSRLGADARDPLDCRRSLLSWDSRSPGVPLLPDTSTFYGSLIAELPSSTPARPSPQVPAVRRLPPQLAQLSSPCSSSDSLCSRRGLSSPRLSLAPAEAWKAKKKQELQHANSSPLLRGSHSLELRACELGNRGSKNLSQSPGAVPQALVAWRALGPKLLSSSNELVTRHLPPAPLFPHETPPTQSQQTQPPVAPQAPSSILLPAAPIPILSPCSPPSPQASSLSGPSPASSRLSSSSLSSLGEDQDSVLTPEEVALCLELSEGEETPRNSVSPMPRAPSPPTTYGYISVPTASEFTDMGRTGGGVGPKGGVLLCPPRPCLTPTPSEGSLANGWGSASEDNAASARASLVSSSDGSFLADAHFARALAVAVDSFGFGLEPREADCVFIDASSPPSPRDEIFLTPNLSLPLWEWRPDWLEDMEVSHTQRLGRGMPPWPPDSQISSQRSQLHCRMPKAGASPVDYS
Assay: flow cytometry, HEK293 cells transfected with pCI-hROBO4, antibody at 10 µg/mL, anti-mouse IgG FITC; control histogram IgG (Mouse IgG2a)
Procedure: HEK293 cells were inoculated at a concentration of 1.5×10⁶ cells/dish to a 60-mm dish (manufactured by Corning Inc.) and cultured overnight in a DMEM medium containing 10% FBS at 37° C. under 5% CO₂ conditions. On the next day, the HEK293 cells were transfected with pCI-hROBO4, pCI-mROBO4, pCI-raROBO4, pCI-FLAG-cynoROBO4-1, pCI-FLAG-cynoROBO4-2, pCI-hROBO1, pCI-hROBO2, or pCI-hROBO3 using FuGENE6 Transfection Reagent and further cultured overnight at 37° C. under 5% CO₂ conditions. On the next day, the expression vector-transfected cells were treated with TrypLE Express (manufactured by Life Technologies Corp.), washed with PBS containing 5% FBS, and then suspended in PBS containing 5% FBS. The obtained cell suspension was used in flow cytometry analysis.
Each cell suspension prepared in 4)-3-1 was centrifuged, and the supernatant was removed. Then, MAb1 or a negative control Mouse IgG2a was added at a concentration of 10 μg/mL to 2×10⁵ expression vector-transfected cells, and the resulting suspension was left standing at 4° C. for 1 hour. […] Data was analyzed using Flowjo. The histogram of FITC fluorescence intensity was prepared. The antibody was determined to bind in a cross-species manner when the histogram of MAb1 was shifted to a stronger fluorescence intensity region compared with the histogram of the negative control Mouse IgG2a.

binding result: binds
B1: anti-ROBO4 mouse monoclonal antibody MAb1 (antibody, mouse IgG1, V domains shown)
VH: EVQLVESGGGLVKPGGSLKLSCAASGFTFSTYAMSWVRQTPEKRLEWVATISNGGTYTYYPDSVKGRFTISRDNAENTLYLQMSSLRSEDTAMYFCARLIYYDYLDYWGHGTTLTVSS
VL: DAVMTQTPLSLPVSLGDQASISCRSSQSLENSNGNTYLNWYFQKPGQSPQLLIYRVSNRFSGVLDRFSGSGSGTDFTLKISRVEAEDFGVYFCLQVTHVPWTFGGGTKLEIKR
notes: Mouse IgG1 (gamma1), kappa light chain, purified from hybridoma supernatant; also called parent antibody MAb1
